The numbers were not newly measured in article PMC10581250, which cites them from elsewhere.

Broadly, the Kd is the concentration at which binding is half-saturated. By Ki is commonly meant the equilibrium dissociation constant of an inhibitor or competing ligand from its target.

Data set [1] deals with OdhA (Corynebacterium glutamicum) (UniProt Q8NRC3). Put plainly: surface plasmon resonance.
Data set [2] deals with OdhA (E1oE2o subunit) (Corynebacterium glutamicum) (UniProt Q8NRC3).
Data set [3] concerns the target KGD (Mycobacterium smegmatis) (UniProt A1KI36).
Sequence of UniProt A1KI36 (A1KI36 whole entry): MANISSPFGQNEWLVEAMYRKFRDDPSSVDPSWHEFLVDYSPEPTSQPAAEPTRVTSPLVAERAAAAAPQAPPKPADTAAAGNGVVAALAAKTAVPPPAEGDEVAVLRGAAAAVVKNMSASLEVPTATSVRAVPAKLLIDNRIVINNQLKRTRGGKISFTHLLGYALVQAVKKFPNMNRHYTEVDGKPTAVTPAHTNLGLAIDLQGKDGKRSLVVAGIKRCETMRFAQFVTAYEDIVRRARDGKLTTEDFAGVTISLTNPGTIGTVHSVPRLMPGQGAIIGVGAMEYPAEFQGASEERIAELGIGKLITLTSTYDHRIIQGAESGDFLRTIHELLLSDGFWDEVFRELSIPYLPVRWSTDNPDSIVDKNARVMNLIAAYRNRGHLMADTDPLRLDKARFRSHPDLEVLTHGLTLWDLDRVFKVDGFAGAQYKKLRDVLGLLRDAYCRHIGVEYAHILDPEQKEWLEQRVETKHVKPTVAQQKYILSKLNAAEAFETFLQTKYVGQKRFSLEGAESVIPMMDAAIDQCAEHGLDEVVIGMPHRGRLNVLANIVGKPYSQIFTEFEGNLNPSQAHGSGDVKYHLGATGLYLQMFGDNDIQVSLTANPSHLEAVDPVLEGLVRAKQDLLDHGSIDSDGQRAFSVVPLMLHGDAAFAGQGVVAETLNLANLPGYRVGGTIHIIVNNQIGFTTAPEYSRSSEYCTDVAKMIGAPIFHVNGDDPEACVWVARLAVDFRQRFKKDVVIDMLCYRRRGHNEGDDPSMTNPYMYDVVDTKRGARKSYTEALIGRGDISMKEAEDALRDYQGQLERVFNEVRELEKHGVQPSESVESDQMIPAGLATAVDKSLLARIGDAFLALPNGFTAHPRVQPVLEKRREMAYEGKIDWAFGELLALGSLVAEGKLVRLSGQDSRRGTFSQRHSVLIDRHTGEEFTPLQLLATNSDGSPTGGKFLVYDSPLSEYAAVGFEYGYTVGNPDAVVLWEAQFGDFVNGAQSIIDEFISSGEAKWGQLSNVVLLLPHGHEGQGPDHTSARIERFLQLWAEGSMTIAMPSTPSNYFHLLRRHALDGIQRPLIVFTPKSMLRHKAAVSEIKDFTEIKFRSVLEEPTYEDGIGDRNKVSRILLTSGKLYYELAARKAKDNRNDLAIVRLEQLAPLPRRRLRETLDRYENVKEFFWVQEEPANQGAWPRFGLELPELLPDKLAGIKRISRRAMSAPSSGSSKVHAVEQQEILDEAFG

Regarding OdhI (from UniProt Q8NQJ3), the Kd in data set [1] was 13.8 nM. The Ki in data set [2] was 2.4 nM.
With GarA (from UniProt P9WJA9), the Kd in data set [3] is 1920 nM.
